{"source": "patent US20140256820A1", "about": "“THERAPEUTIC AGENT FOR BLOOD-BRAIN BARRIER DISRUPTION SYNDROME” (FUKUOKA UNIVERSITY, priority 2010, published 2014)", "tested_on": "rat brain endothelial cells: RBECs", "format": "cell-based", "procedure": "Thus, a “t-PA-induced BBB dysfunction model” was prepared by the loading of ischemia and t-PA onto an in vitro BBB model. […] The resulting sample was left for 48 hours under 95% N2/5% CO2 (ischemia) conditions. Then, the permeability test was conducted."}
{"substance": "t-PA: tissue plasminogen activator, a thrombolytic drug for cerebral infarction; t-PA injection (Activacin; Kyowa Hakko Kirin Co., Ltd.)", "values": [{"measurement": "permeability of albumin (Evans blue-albumin: EBA) on loading of t-PA under ischemic conditions", "result": "increased the permeability"}, {"measurement": "permeability of fluorescein sodium on loading of t-PA under ischemic conditions", "result": "increased the permeability"}]}
